From patent US8821862B2, “Soluble β-N-acetylglucosaminidase based antibiofilm compositions and uses thereof” (Kane Biotech Inc., priority 2002, dated 2014)

Tests used:
[1] = system: E. coli; test: In vitro microplate biofilm formation assay (crystal violet); assay type: cell-based, Escherichia coli; conditions: DispersinB at different concentrations, CFA medium, 26° C., 24 hours
Procedure: (§5) An in vitro microplate assay was performed to determine the effect of DispersinB™ on the growth and biofilm formation of E. coli, S. epidermidis, and S. aureus. E. coli biofilm was grown in colony forming antigen (CFA) medium. […] S. epidermidis and S. aureus biofilm was grown in tryptic soy broth (TSB). Bacteria were separately grown in 96-well microtiterplate in the absence and presence of DispersinB™ at different concentrations. The E. coli plate was incubated at 26° C. for 24 hours. The S. epidermidis and S. aureus biofilm plates were incubated at 37° C. for 24 hours. Growth of planktonic cells based on the absorbance at 600 nm was determined using Labsystems Multiskan Ascent microplate reader. Biofilm was measured by discarding the medium; rinsing the wells with water (three times), and staining bound cells with crystal violet. The dye was solubilized with 33% acetic acid, and absorbance at 630 nm was determined using a microtiter plate reader.

[2] = system: S. aureus; test: as above; assay type: cell-based, Staphylococcus aureus; conditions: DispersinB at different concentrations, TSB, 37° C., 24 hours
Procedure: as §5

[3] = system: biofilm-embedded S. epidermidis; test: In vitro biofilm killing assay after DispersinB pre-treatment; assay type: cell-based, Staphylococcus epidermidis; conditions: DispersinB alone, 20 μg/ml, 30 min
Procedure: An in vitro biofilm assay was performed to determine the effect of DispersinB™ pre-treatment on the susceptibility of S. epidermidis to SDS. S. epidermidis biofilm grown in tubes were pretreated with PBS or DispersinB™ (20 μg/ml) for 30 min, and then treated with SDS (0.2 mg/ml) for 5 min at 37° C. […] However, SDS caused a 1.5 log unit decrease in the number of CFUs in tubes pretreated with […] biofilm embedded cells more susceptible to SDS.
An in vitro biofilm assay was performed to determine the effect of DispersinB™ pre-treatment on the susceptibility of biofilm-embedded S. epidermidis to CHX. S. epidermidis biofilm grown in tubes were pretreated with PBS or DispersinB™ (20 μg/ml) for 30 min, and then treated with CHX (0.2 μg/ml) for 5 min at 37° C. […] However, CHX caused a 1.6 log decrease of CFU in tubes pretreated with DispersinB™. DispersinB™ pretreatment made biofilm-embedded cells more susceptible to CHX.
An in vitro biofilm assay was performed to determine the effect of DispersinB™ pre-treatment on the susceptibility of S. epidermidis to BKC. S. epidermidis biofilm grown in tubes were pretreated with PBS or DispersinB™ (20 μg/ml) for 30 min, and then treated with BKC (0.4 μg/ml) for 60 min at 37° C. […] However, BKC caused a 2.2 log decrease in CFU in tubes pretreated with DispersinB™. DispersinB™ pre-treatment made biofilm-embedded cells more susceptible to BKC.
An in vitro biofilm assay was performed to determine the effect of DispersinB™ pre-treatment on susceptibility of S. epidermidis to silver nanopowder (SNP). S. epidermidis biofilm grown in tubes were pretreated with PBS or DispersinB™ (20 μg/ml) for 30 min, and then treated with SNP (0.03125 μg/ml) for 60 min at 37° C. […] However, SNP caused a 1.5 log decrease in CFU in tubes pretreated with DispersinB™. DispersinB™ pre-treatment made biofilm embedded cells more susceptible to SNP treatment.

[4] = system: A. actinomycetemcomitans strain CU1000 (wild-type) biofilms; test: Biofilm detachment assay (crystal violet); assay type: cell-based
Source text: (§1) Bacterial strains, media, and growth conditions. A. actinomycetemcomitans strain CU1000 (serotype f) was isolated from a person with localized aggressive periodontitis (Fine et al., Microbiol. 1999, 145: 1335-1347). […] An isogenic PGA mutant strain HW1018 (CU1000 pgaC::IS903φKan) was isolated by randomly mutagenizing CU1000 with transposon IS903φKan and selecting mutants that produced white colonies on Congo red agar, as previously described (Kaplan et al., 2003; Kaplan et al., J. Bacteriol. 2004, 186: 8213-8220). Like other pgaC mutant strains, HW1018 was completely deficient in PGA production, but still formed tenacious biofilms on plastic surfaces (Kaplan et al., 2004). Bacteria were grown in trypticase soy broth supplemented with […] and 8 g/L glucose. Solid medium was supplemented with 15 g/L agar. All cultures were incubated statically at 37° C. in 10% CO2.
(§2) Biofilm Cultures. Biofilms were grown in 17 mm×100 mm culture tubes (untreated polystyrene; Falcon #352051) or 96-well microtiter plates (tissueculture-treated polystyrene, flat bottoms; Falcon #353072). Culture vessels were inoculated with a 1:10 dilution of inoculum in fresh broth (1 mL for tubes or 200 μL for microplates) and incubated for 24 h.
(§3) Crystal Violet Assay. Biofilm biomass was visualized and quantitated by means of a crystal violet binding assay as previously described (Kaplan et al., Antimicrob. Agents Chemother. 2004, 48: 2633-2636). Briefly, biofilms were rinsed with water to remove loosely attached cells, stained for 1 min with Gram's crystal violet (200 μL for microplates and 1 mL for tubes), rinsed, dried, and photographed. For quantitation of biofilms grown in microplates, biofilms were de-stained with 200 μL of 33% acetic acid for 5 min, and the absorbance of the crystal violet solution was measured directly in the plate by means of a BioRad Benchmark microtiter plate-reader set at 590 nm. Crystal violet binds to bacterial biofilms, but not to polystyrene (O'Toole & Kolter, Mol. Microbiol. 1998, 28: 449-461).
(§4) Biofilm Detachment Assay. Biofilms were rinsed with water and treated with 200 μL (for microplates) or 1 mL (for tubes) of DispersinB™ (20 μg/mL in PBS) or SDS (0.001-1% in PBS). After a five- or 30-minute incubation at 37° C., biofilms were rinsed with water and stained with crystal violet as described above. In some assays, biofilms were first treated with DispersinB™ for 5 or 30 min, rinsed, and then treated with SDS. All detachment assays were performed in duplicate wells or tubes. All assays were performed on at least 3 separate occasions, with similar results.

[5] = system: A. actinomycetemcomitans strain HW1018 (PGA mutant) biofilms; test: Biofilm detachment assay (crystal violet); assay type: cell-based; conditions: DispersinB 20 μg/mL; either culture vessel
Source text: as §1, §2, §3, §4

[6] = Shelf life of purified DispersinB; assay type: physicochemical

B1: DispersinB™: 381 amino acid soluble β-N-acetylglucosaminidase encoded by dspB of A. actinomycetemcomitans; mature polypeptide SEQ ID NO:11 (protein)
chain: NCCVKGNSIYPQKTSTKQTGLMLDIARHFYSPEVIKSFIDTISLSGGNFLHLHFSDHENYAIESHLLNQRAENAVQGKDGIYINPYTGKPFLSYRQLDDIKAYAKAKGIELIPELDSPNHMTAIFKLVQKDRGVKYLQGLKSRQVDDEIDITNADSITFMQSLMSEVIDIFGDTSQHFHIGGDEFGYSVESNHEFITYANKLSYFLEKKGLKTRMWNDGLIKNTFEQINPNIEITYWSYDGDTQDKNEAAERRDMRVSLPELLAKGFTVLNYNSYYLYIVPKASPTFSQDAAFAAKDVIKNWDLGVWDGRNTKNRVQNTHEIAGAALSIWGEDAKALKDETIQKNTKSLLEAVIHKTNGDE
modifications: Actinobacillus actinomycetemcomitans
Question: Which biofilm formation [1] does the source give for B1 here?
Answer: appreciable effect

Question: What about the biofilm formation [2] of the same molecule?
Answer: appreciable effect

Question: What about the “killing of biofilm-embedded S. epidermidis” value [3] of the same molecule?
Answer: did not significantly kill

Question: What about the “detachment of wild-type biofilms from microplate wells” value ([4]; DispersinB 20 μg/mL in PBS, 5 min, 96-well microplate wells) of the same molecule?
Answer: not from microplate wells

Question: And the “detachment of wild-type biofilms from tubes” value ([4]; DispersinB 20 μg/mL in PBS, 5 min, polystyrene tubes)?
Answer: rapid detachment

Question: And the “single cells in suspension after disaggregation of biofilms” value ([4]; biofilms grown in tubes, DispersinB, microscopic analyses (data not shown))?
Answer: > 99%

Question: And the “attachment of PGA mutant biofilms” value [5]?
Answer: no effect

Question: What about the shelf life [6] of the same molecule?
Answer: approximately 12 months
